Test results taken from article PMC6572788 (2019).

Columns and labels:
[1] = target: T1, 2PT-NBD1 (human CFTR NBD1, residues 387–646, S492P/A534P/I539T) (human, UniProt P13569 387-646, S492P | A534P | I539T, biotin (in the ELISA; site not stated)); test: ELISA; printed as pEC50 5.8
[2] = target: T1, 2PT-NBD1 (human CFTR NBD1, residues …); test: ELISA; printed as pEC50 8.4
[3] = target: T1, 2PT-NBD1 (human CFTR NBD1, residues …); test: ELISA; printed as pEC50 7.9
[4] = target: T1, 2PT-NBD1 (human CFTR NBD1, residues …); test: ELISA; printed as pEC50 8.7
[5] = target: T1, 2PT-NBD1 (human CFTR NBD1, residues …); test: ELISA; printed as pEC50 7.6

T1 sequence (P13569 387-646 S492P/A534P/I539T): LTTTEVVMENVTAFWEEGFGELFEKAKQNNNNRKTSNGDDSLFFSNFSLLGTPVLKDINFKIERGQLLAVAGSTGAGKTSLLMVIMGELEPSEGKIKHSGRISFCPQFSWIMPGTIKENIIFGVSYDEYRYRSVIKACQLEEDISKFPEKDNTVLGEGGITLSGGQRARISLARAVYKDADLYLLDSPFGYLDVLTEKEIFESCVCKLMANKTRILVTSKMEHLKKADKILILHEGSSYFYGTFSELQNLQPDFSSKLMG

B1: nanobody G3a (VHH)
VHH: QVQLQESGGGLVQAGGSLRLSCTASGRAFSWYVMGWFRQAPGKEREFVATVSGNGSRRDYADSVKGRFTISRDNAKNTVYLQMNSLKPEDTAVYYCAASSTYYYTDPEKYDYWGQGTQVTVSS
EC50 [1]: 1580 nM

B2: nanobody T4 (VHH)
VHH: QVQLQESGGGLVQAGGSLRLSCAASGSTFAIIAMGWYRQAPGKQRELVAVISTGDTRYADSVKGRFTISRDNAKNTVYLQMDSLRPEDTAVYYCNAAVQVRDYRNYWGQGTQVTVSS
EC50 [2]: 3.98 nM

B3: nanobody T2a (VHH)
VHH: QVQLQESGGGLVQAGGSLRLSCAASGSIFRIDAMGWYRQAPGKQRELVAHSTSGGSTDYADSVKGRFTISRDNAKNTVYLQMNSLKPEDTAVYYCNADVRTRWYASNNYWGQGTQVTVSS
EC50 [3]: 12.6 nM

B4: nanobody T27 (VHH)
VHH: QVQLQESGGGLEQPGGSLRLSCATSGVIFGINAMGWYRQAPGKQRELVATFTSGGSTNYADFVEGRFTISRDNAKNTVYLQMNGLRPEDTAVYYCHATVVVSRYGLTYDYWGQGTQVTVSS
EC50 [4]: 2 nM

B5: nanobody T8 (VHH)
VHH: QVQLQESGGGLVQPGGSLRLSCAASGSTSSINAMGWYRQAPGKQREPVAISSSGGDTRYAEPVKGRFTISRDNAQNKVYLQMNSLKPEDTAVYYCWLNWGRTSVNSWGQGTQVTVSS
EC50 [3]: 12.6 nM

B6: nanobody D12 (VHH)
VHH: QVQLQESGGGLVQAGSSLRLACAATGSIRSINNMGWYRQAPGKQRGMVAIITRVGNTDYADSVKGRFTISRDNAKNTVYLQMNSLKPEDTATYYCHAEITEQSRPFYLTDDYWGQGTQVTVSS
EC50 [5]: 25.1 nM
